Measurements: patent publication US7951356B1, “Tissue factor compositions and kits for coagulation and tumor treatment” (Board of Regents, The University of Texas System, priority 1997, dated 2011)

B1: H6-tTF221-cys-C′: tTF219 mutated to carry Ile-Phe-Cys after amino acid 219; SEQ ID NO:7 (protein)
chain: HHHHHHAMALVPRGSGTTNTVAAYNLTWKSTNFKTILEWEPKPVNQVYTVQISTKSGDWKSKCFYTTDTECDLTDEIVKDVKQTYLARVFSYPAGNVESTGSAGEPLYENSPEFTPYLETNLGQPTIQSFEQVGTKVNVTVEDERTLVRRNNTFLSLRDVFGKDLIYTLYYWKSSSSGKKTAKTNTNEFLIDVDKGENYCFSVQAVIPSRTVNRKSTDSPVECMGQEKGEFREIFC
B2: H6-tTF221-cys-C′ dimer: chemically conjugated dimer of SEQ ID NO:7 (protein)
chain: HHHHHHAMALVPRGSGTTNTVAAYNLTWKSTNFKTILEWEPKPVNQVYTVQISTKSGDWKSKCFYTTDTECDLTDEIVKDVKQTYLARVFSYPAGNVESTGSAGEPLYENSPEFTPYLETNLGQPTIQSFEQVGTKVNVTVEDERTLVRRNNTFLSLRDVFGKDLIYTLYYWKSSSSGKKTAKTNTNEFLIDVDKGENYCFSVQAVIPSRTVNRKSTDSPVECMGQEKGEFREIFC
modifications: chemically conjugated dimer
B3: “standard” tTF: “standard” tTF219 preparation obtained from Dr. Thomas Edgington (The Scripps Research Institute) (protein)
chain: GSGTTNTVAAYNLTWKSTNFKTILEWEPKPVNQVYTVQISTKSGDWKSKCFYTTDTECDLTDEIVKDVKQTYLARVFSYPAGNVESTGSAGEPLYENSPEFTPYLETNLGQPTIQSFEQVGTKVNVTVEDERTLVRRNNTFLSLRDVFGKDLIYTLYYWKSSSSGKKTAKTNTNEFLIDVDKGENYCFSVQAVIPSRTVNRKSTDSPVECMGQEKGEFRE
B4: tTF221-cys-C′: tTF221-cys-C′, tested beside H6-tTF221-cys-C′ (FIG. 7) (protein)
chain: GSGTTNTVAAYNLTWKSTNFKTILEWEPKPVNQVYTVQISTKSGDWKSKCFYTTDTECDLTDEIVKDVKQTYLARVFSYPAGNVESTGSAGEPLYENSPEFTPYLETNLGQPTIQSFEQVGTKVNVTVEDERTLVRRNNTFLSLRDVFGKDLIYTLYYWKSSSSGKKTAKTNTNEFLIDVDKGENYCFSVQAVIPSRTVNRKSTDSPVECMGQEKGEFREIFC
B5: H6—N′-cys-tTF219: tTF219 with (His)6 and a Cys in front of the N′-terminus; SEQ ID NO:2 (protein)
chain: HHHHHHAMALVPRGSCGTTNTVAAYNLTWKSTNFKTILEWEPKPVNQVYTVQISTKSGDWKSKCFYTTDTECDLTDEIVKDVKQTYLARVFSYPAGNVESTGSAGEPLYENSPEFTPYLETNLGQPTIQSFEQVGTKVNVTVEDERTLVRRNNTFLSLRDVFGKDLIYTLYYWKSSSSGKKTAKTNTNEFLIDVDKGENYCFSVQAVIPSRTVNRKSTDSPVECMGQEKGEFRE
B6: H6—N′ cys-tTF219 dimer: chemically conjugated dimer of SEQ ID NO:2 (protein)
chain: HHHHHHAMALVPRGSCGTTNTVAAYNLTWKSTNFKTILEWEPKPVNQVYTVQISTKSGDWKSKCFYTTDTECDLTDEIVKDVKQTYLARVFSYPAGNVESTGSAGEPLYENSPEFTPYLETNLGQPTIQSFEQVGTKVNVTVEDERTLVRRNNTFLSLRDVFGKDLIYTLYYWKSSSSGKKTAKTNTNEFLIDVDKGENYCFSVQAVIPSRTVNRKSTDSPVECMGQEKGEFRE
modifications: chemically conjugated dimer
B7: Fab′-H6—N′-cys-tTF219 (conjugate)
chain: HHHHHHAMALVPRGSCGTTNTVAAYNLTWKSTNFKTILEWEPKPVNQVYTVQISTKSGDWKSKCFYTTDTECDLTDEIVKDVKQTYLARVFSYPAGNVESTGSAGEPLYENSPEFTPYLETNLGQPTIQSFEQVGTKVNVTVEDERTLVRRNNTFLSLRDVFGKDLIYTLYYWKSSSSGKKTAKTNTNEFLIDVDKGENYCFSVQAVIPSRTVNRKSTDSPVECMGQEKGEFRE
modifications: left off: another chain or arm of the molecule; large carriers
B8: IgG-H6—N′-cys-tTF219 (conjugate)
chain: HHHHHHAMALVPRGSCGTTNTVAAYNLTWKSTNFKTILEWEPKPVNQVYTVQISTKSGDWKSKCFYTTDTECDLTDEIVKDVKQTYLARVFSYPAGNVESTGSAGEPLYENSPEFTPYLETNLGQPTIQSFEQVGTKVNVTVEDERTLVRRNNTFLSLRDVFGKDLIYTLYYWKSSSSGKKTAKTNTNEFLIDVDKGENYCFSVQAVIPSRTVNRKSTDSPVECMGQEKGEFRE
modifications: left off: large carriers
B9: H6-tTF220-cys-C′: tTF219 mutated to carry Ile-Cys after amino acid 219; SEQ ID NO:6 (protein)
chain: HHHHHHAMALVPRGSGTTNTVAAYNLTWKSTNFKTILEWEPKPVNQVYTVQISTKSGDWKSKCFYTTDTECDLTDEIVKDVKQTYLARVFSYPAGNVESTGSAGEPLYENSPEFTPYLETNLGQPTIQSFEQVGTKVNVTVEDERTLVRRNNTFLSLRDVFGKDLIYTLYYWKSSSSGKKTAKTNTNEFLIDVDKGENYCFSVQAVIPSRTVNRKSTDSPVECMGQEKGEFREIC
B10: H6-tTF219-cys-C′: tTF219 with (His)6 and a Cys after amino acid 219; SEQ ID NO:3 (protein)
chain: HHHHHHAMALVPRGSGTTNTVAAYNLTWKSTNFKTILEWEPKPVNQVYTVQISTKSGDWKSKCFYTTDTECDLTDEIVKDVKQTYLARVFSYPAGNVESTGSAGEPLYENSPEFTPYLETNLGQPTIQSFEQVGTKVNVTVEDERTLVRRNNTFLSLRDVFGKDLIYTLYYWKSSSSGKKTAKTNTNEFLIDVDKGENYCFSVQAVIPSRTVNRKSTDSPVECMGQEKGEFREC
B11: tTF220-cys-C′: tTF220-cys-C′, tested beside H6-tTF220-cys-C′ (FIG. 6) (protein)
chain: GSGTTNTVAAYNLTWKSTNFKTILEWEPKPVNQVYTVQISTKSGDWKSKCFYTTDTECDLTDEIVKDVKQTYLARVFSYPAGNVESTGSAGEPLYENSPEFTPYLETNLGQPTIQSFEQVGTKVNVTVEDERTLVRRNNTFLSLRDVFGKDLIYTLYYWKSSSSGKKTAKTNTNEFLIDVDKGENYCFSVQAVIPSRTVNRKSTDSPVECMGQEKGEFREIC

What was measured:
citrated mouse plasma = assay: In vitro coagulation assay: tTF constructs localized on A20 lymphoma cells via bispecific antibody B21-2/10H10; type: cell-based; conditions: for concentration applied to the cells at which plasma coagulated in 50 seconds: A20 cells coated with B21-2/10H10, FIG. 5-8, 15; for coagulation-inducing activity once localized on A20 cells via B21-2/10H10, in words (compared with tTF219): plasma coagulation; for fold less active than tTF219 at inducing coagulation of plasma: localized on A20 cells via B21-2/10H10
Procedure: This assay was used to verify that tTF, various derivatives and mutants thereof, and immunoglobulin-tTF conjugates acquire coagulation inducing activity once localized at a cell surface. A20 lymphoma cells (I-A^d positive) (2×10^6 cells/ml, 50 μl) were incubated for 1 h at room temperature with a bispecific antibody (50 μg/ml, 25 μl) consisting of a Fab′ arm of the B21-2 antibody directed against I-A^d linked to a Fab′ arm of the 10H10 antibody directed against a non-inhibitory epitope on tTF. The cells were washed at room temperature and varying concentrations of tTF, derivatives or mutants thereof, or immunoglobulin-tTF conjugates were added for 1 hour at room temperature. The bispecific antibody captures the tTF or tTF linked to immunoglobulin, bringing it into close approximation to the cell surface, where coagulation can proceed.
The cells were washed again at room temperature, resuspended in 75 μl of PBS and warmed to 37° C. […] The time for the first fibrin strands to form was recorded. Clotting time was plotted against tTF concentration and curves compared with standard curves prepared using standard tTF219 preparations.

factor X = assay: Factor Xa production assay (chromogenic substrate S-2765) with constructs localized on A20 cells; type: biochemical; conditions: presence of Factors II, VII and IX, B21-2/10H10, FIG. 17
Procedure: The assay measures factor X to Xa conversion rate by means of a chromophore-generating substrate (S-2765) for factor Xa.
A20 cells (2×10^7 cells) were suspended in 10 ml medium containing 0.2% w/v sodium azide. To 2.5 ml cell suspension were added 6.8 μg of B21-2/10H10 “capture” bispecific antibody for 50 minutes at room temperature. The cells were washed and resuspended in 2.5 ml medium containing 0.2% w/v sodium azide. The tTF and immunoglobulin-tTF conjugates dissolved in the same medium were distributed in 100 μl volumes at a range of concentrations into wells of 96-well microtiter plates. To the wells was then added 100 μl of the cell/bispecific antibody suspension. The plates were incubated for 50 minutes at room temperature.
The plates were centrifuged, the supernatants were discarded and the cell pellets were resuspended in 250 μl of Wash Buffer (150 mM NaCl: 50 mM Tris-HCl, pH 8; 0.2% w/v bovine serum albumin). The cells were washed again and cells resuspended in 100 μl of a 12.5-fold dilution of Proplex T (Baxter, Inc.) containing Factors II, VII, IX and X in Dilution Buffer (Wash Buffer supplemented with 12.5 mM calcium chloride). Plates were incubated at 37° C. for 30 minutes. To each well was added Stop Solution (12.5 mM sodium ethylenediaminetetracetic acid (EDTA)) in wash buffer. Plates were centrifuged. […] The optical density of each solution was measured at 409 nm. […]

Row | Molecule | concentration applied to the cells at which plasma coagulated in 50 seconds (citrated mouse plasma) | coagulation-inducing activity once localized on A20 cells via B21-2/10H10, in words (compared with tTF219) (citrated mouse plasma) | other results
1 | B1 | 0.5 nM | as active as tTF219 | concentration applied to the cells at which plasma coagulated in 50 seconds (citrated mouse plasma; listed as H6-tTF221-cys-C′ monomer): 1 nM
2 | B2 | 4 nM | – | fold less active than tTF219 at inducing coagulation of plasma (citrated mouse plasma): 4 fold
3 | B3 | 3 nM | – | –
4 | B4 | 0.5 nM | as active as tTF219 | –
5 | B5 | – | as active as tTF | –
6 | B6 | – | as active as tTF219 itself | –
7 | B7 | – | – | activity at inducing Xa formation compared with H6—N′-cys-tTF219 (factor X): as active as H6—N′-cys-tTF219 itself
8 | B8 | 5 nM | – | fold less active than H6—N′-cys-tTF219 at inducing Xa formation (factor X): 2 fold; fold less active than tTF219 at inducing coagulation of plasma (citrated mouse plasma): 5 fold
9 | B9 | 0.5 nM | as active as tTF219 | –
10 | B10 | 3 nM | as active as tTF | –
11 | B11 | 0.5 nM | as active as tTF219 | –
